How the values were obtained:
Test in all cases: purified protein
Assay type in all cases: biochemical, Arabidopsis thaliana
purified protein [1] = substrate: N[C@@H](Cc1c[nH]c2ccccc12)C(=O)O; details: 0.2 mM PLP, 100 mM HEPES pH 8.0, 30 °C
purified protein [2] = substrate: N[C@@H](Cc1ccc(O)cc1)C(=O)O; details: 0.2 mM PLP, 100 mM HEPES pH 8.0, 30 °C
purified protein [3] = substrate: N[C@@H](Cc1ccccc1)C(=O)O; details: 0.2 mM PLP, 100 mM HEPES pH 8.0, 30 °C
purified protein [4] = substrate: N[C@@H](Cc1c[nH]cn1)C(=O)O; details: 20 mM alpha-ketoglutarate, 0.2 mM PLP, 100 mM HEPES pH 8.0, 30 °C

Protein | Km (purified protein [1]; 20 mM alpha-ketoglutarate) [mM] | kcat (purified protein [1]; 20 mM alpha-ketoglutarate) [s⁻¹] | Km (purified protein [2]; 20 mM alpha-ketoglutarate) [mM] | kcat (purified protein [2]; 20 mM alpha-ketoglutarate) [s⁻¹] | Km (purified protein [3]; 20 mM alpha-ketoglutarate) [mM] | kcat (purified protein [3]; 20 mM alpha-ketoglutarate) [s⁻¹] | Km (purified protein [4]) [mM] | kcat (purified protein [4]) [s⁻¹] | Km (purified protein [1]; 20 mM pyruvate) [mM] | kcat (purified protein [1]; 20 mM pyruvate) [s⁻¹] | Km (purified protein [2]; 20 mM pyruvate) [mM] | kcat (purified protein [2]; 20 mM pyruvate) [s⁻¹] | Km (purified protein [3]; 20 mM pyruvate) [mM] | kcat (purified protein [3]; 20 mM pyruvate) [s⁻¹]
AtTAR1 (Arabidopsis thaliana) (protein) MMVGCENSKKSDSGSNEDKSLSDDIINLDQGDPTAFQEYWMKKKDRCTVVIPAWDLMSYFSDTKNVCWFLEPELEKAIKALHGAIGNAATEERYIVVGTGSSQLCQAALFALSSLSEVKPVSIVAAVPYYSTYVEEASYLQSTLYKWEGDARTFDKKGPYIELVTSPNNPDGIMREPVVNRREGGKVIHDLAYYWPHYTPITRRQDHDLMLFTFSKITGHAGSRIGWALVKDIEVAKKMVHYLTINSIGVSKESQTRATTILNELTKTCRTQSESFFEYGYEKMKSRWERLREVVESGDAFTLPNYPQDFCNFFGKTLSTSPAFAWLGYKEERDLGSLLKEKKVLTRGGDRCGCNKRYVRVSMLSRDDDFDVSLQRLATIKDLKCVEP | 0.07 ± 0.02 | 4.5 ± 0.2 | 1 ± 3 | 4.0 ± 0.3 | 2.6 ± 0.3 | 5.0 ± 0.2 | 30 ± 6 | 1.8 ± 0.1 | – | – | – | – | – | –
AtTAA1 (Arabidopsis thaliana) (protein) MVKLENSRKPEKISNKNIPMSDFVVNLDHGDPTAYEEYWRKMGDRCTVTIRGCDLMSYFSDMTNLCWFLEPELEDAIKDLHGVVGNAATEDRYIVVGTGSTQLCQAAVHALSSLARSQPVSVVAAAPFYSTYVEETTYVRSGMYKWEGDAWGFDKKGPYIELVTSPNNPDGTIRETVVNRPDDDEAKVIHDFAYYWPHYTPITRRQDHDIMLFTFSKITGHAGSRIGWALVKDKEVAKKMVEYIIVNSIGVSKESQVRTAKILNVLKETCKSESESENFFKYGREMMKNRWEKLREVVKESDAFTLPKYPEAFCNYFGKSLESYPAFAWLGTKEETDLVSELRRHKVMSRAGERCGSDKKHVRVSMLSREDVFNVFLERLANMKLIKSIDL | – | – | – | – | – | – | 11 ± 2 | 0.6 ± 0.1 | 1.2 ± 0.2 | 4.2 ± 0.2 | 8 ± 3 | 13.2 ± 0.3 | 13 ± 3 | 2.0 ± 0.3
